Laboratory results: patent US20230119539A1, “TRACELESS LINKERS AND PROTEIN-CONJUGATES THEREOF” (Regeneron Pharmaceuticals, Inc., priority 2019, published 2023)
Where two headings read alike, the source gives them in different places.

T1: human macrophage scavenger receptor 1 (MSR1) (human, UniProt P21757 1-451)
T1 sequence (looked up): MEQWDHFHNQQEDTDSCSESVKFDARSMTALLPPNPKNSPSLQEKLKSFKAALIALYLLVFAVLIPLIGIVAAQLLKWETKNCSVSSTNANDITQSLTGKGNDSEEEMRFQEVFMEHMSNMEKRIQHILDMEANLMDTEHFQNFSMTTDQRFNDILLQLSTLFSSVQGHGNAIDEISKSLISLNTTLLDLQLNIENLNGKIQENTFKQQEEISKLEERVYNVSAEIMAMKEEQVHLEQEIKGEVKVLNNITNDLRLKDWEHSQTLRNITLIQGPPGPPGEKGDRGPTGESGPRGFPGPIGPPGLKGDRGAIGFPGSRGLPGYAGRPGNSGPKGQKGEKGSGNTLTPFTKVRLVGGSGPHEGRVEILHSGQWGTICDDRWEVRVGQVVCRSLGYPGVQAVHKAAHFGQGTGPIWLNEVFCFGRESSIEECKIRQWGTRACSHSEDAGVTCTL

T2: GR (Homo sapiens, UniProt P04150)
T2 construct: host or cells: HEK293 (HEK293/GRLuc; HEK293/GRLuc/MSR1 additionally transduced with human MSR1)
T2 sequence (P04150 524-758 limits assumed): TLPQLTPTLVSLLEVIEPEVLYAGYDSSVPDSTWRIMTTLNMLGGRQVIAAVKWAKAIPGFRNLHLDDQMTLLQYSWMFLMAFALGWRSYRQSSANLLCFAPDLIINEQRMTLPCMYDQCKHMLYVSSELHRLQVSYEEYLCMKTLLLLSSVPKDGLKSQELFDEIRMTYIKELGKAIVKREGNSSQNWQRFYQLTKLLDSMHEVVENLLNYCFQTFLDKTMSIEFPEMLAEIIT


Key:
[1] = target: T1, human macrophage scavenger receptor 1 …; experiment: cell-based or functional assay
[2] = target: T2, GR; experiment: GR luciferase reporter assay in HEK293/GRLuc cells; type: cell-based
Experimental: Activity of anti-MSR1 ncADCs were tested using an MSR1 ADC steroid responsive luciferase reporter assay. To generate the assay cell line, HEK293 cells were co-transfected with the pBind-GR (Promega, Cat #E158A) and pGL4.35 [Luc2P/9xGAL4UAS/Hygro] (Promega, Cat #E137A) vectors. The pBind-GR vector expresses a fusion protein consisting of the GR ligand binding and the yeast Gal4DNA-binding domain, which binds to the Gal4 upstream activation sequence (UAS) in the luciferase expression vector, that can induce luciferase expression following GR agonist binding. The cells were selected for at least 2 weeks in G418+hygromycin and the resulting cell line is referred to as HEK293/GRLuc. HEK293/GRLuc cells were then transduced with a human MSR1 lentiviral expression vector and 48 hours later cells were sorted for MSR1 positive cells. The resulting cell line is referred to as HEK293/GRLuc/MSR1.
Three-fold serial dilutions of ncADCs in assay buffer were added to the cells for 48 hours. The last well in the plate served as blank control containing only the assay media and was plotted as a continuation of the 3-fold serial dilution. Luciferase activity was determined using the One-Glo™ reagent (Promega, Cat #E6130). Relative light units (RLUs) were measured on an Envision luminometer (PerkinElmer) and EC50 values were determined using a four-parameter logistic equation over a 10-point dose response curve (GraphPad Prism). The signal to noise (S/N) was determined by taking the ratio of the highest RLU on the dose response curve to the RLU in the untreated wells.
To test the activity of GR agonist payloads disclosed herein, a cell-based GR responsive luciferase reporter assay was developed as described above.
Three-fold serial dilutions of free payloads were prepared in 100% DMSO, transferred to fresh assay media, and added to the cells for 48 hours. […] The last well in the plate served as blank control containing only the assay media and 0.2% DMSO (untreated well) and was plotted as a continuation of the 3-fold serial dilution. Luciferase activity was determined using the One-Glo™ reagent (Promega, Cat #E6130). Relative light units (RLUs) were measured on an Envision luminometer (PerkinElmer) and EC50 values were determined using a four-parameter logistic equation over a 10-point dose response curve (GraphPad Prism). The signal to noise (S/N) was determined by taking the ratio of the highest RLU on the dose response curve to the RLU in the untreated wells.

[3] = target: T1, human macrophage scavenger receptor 1 …; experiment: cell-based or functional assay; remark: listed apart in the source
[4] = Table 8, ncADCs, highest RLU / RLU of untreated wells

Row | Molecule | EC50, GR luciferase reporter activity in HEK293/GRLuc/MSR1 cells [1] | S/N (highest RLU / RLU in untreated wells), HEK293/GRLuc/MSR1 cells [1] | EC50 ([2]; Table 8, ncADCs, 48 hours) | S/N [2, 4] | EC50, GR luciferase reporter activity in HEK293/GRLuc/MSR1 cells [3] | S/N, HEK293/GRLuc/MSR1 cells [3] | EC50 ([2]; Table 11, ADCs) | S/N ([2]; Table 11, ADCs)
1 | H1H21234N-N297Q-L4-PIII-1 (antibody, V domains shown, heavy-chain constant region (not part of this entry): N297Q (EU); linker-payload L4-PIII-1 (DIBAC-suc-GGF-PIII-1) clicked onto azido-PEG3-amine on glutamines; DAR 4) VH: QVQLQESGPGLVKPSETLSLTCTVTGGSISRNYWSWIRQPPGKGLEWIGYIYYSGSIDYNPSLKSRVTISVDTSKNQFSLKLSSMTAADTAVYYCARDRWNWKYGMDVWGQGTTVIVSS VL: EIVLTQSPGTLSLSPGERATLSCRASQTVRNNYLAWYHQKPGQAPRLLIYGASSRATGIPDRFSGSGSGTDFTLTISRLEPEDFTVYYCHQYGNSPWTFGQGTKMEIKR | 0.117 nM | 148 | 51.4 nM | 25.5 | – | – | – | –
2 | H1H21234N-N297Q-L6-PII-9 (antibody, V domains shown, heavy-chain constant region (not part of this entry): N297Q (EU); linker-payload L6-PII-9 (DIBAC-suc-PEG4-PII-9, payload budesonide) conjugated as in Example 5; four DAR ADC) VH: QVQLQESGPGLVKPSETLSLTCTVTGGSISRNYWSWIRQPPGKGLEWIGYIYYSGSIDYNPSLKSRVTISVDTSKNQFSLKLSSMTAADTAVYYCARDRWNWKYGMDVWGQGTTVIVSS VL: EIVLTQSPGTLSLSPGERATLSCRASQTVRNNYLAWYHQKPGQAPRLLIYGASSRATGIPDRFSGSGSGTDFTLTISRLEPEDFTVYYCHQYGNSPWTFGQGTKMEIKR | – | – | – | – | 3.96 nM | 150 | > 100 nM | 15.8
3 | H1H21234N-N297Q-L8-PII-1 (antibody, V domains shown, heavy-chain constant region (not part of this entry): N297Q (EU); linker-payload L8-PII-1 (COT-PEG4-EvcPAB-G-NHCH2-Bud) conjugated as in Example 5; four DAR ADC) VH: QVQLQESGPGLVKPSETLSLTCTVTGGSISRNYWSWIRQPPGKGLEWIGYIYYSGSIDYNPSLKSRVTISVDTSKNQFSLKLSSMTAADTAVYYCARDRWNWKYGMDVWGQGTTVIVSS VL: EIVLTQSPGTLSLSPGERATLSCRASQTVRNNYLAWYHQKPGQAPRLLIYGASSRATGIPDRFSGSGSGTDFTLTISRLEPEDFTVYYCHQYGNSPWTFGQGTKMEIKR | – | – | – | – | 0.899 nM | 280 | > 100 nM | 1.4
4 | H1H21234N-N297Q-L2-PIII-1 (antibody, V domains shown, heavy-chain constant region (not part of this entry): N297Q (EU); linker-payload L2-PIII-1 (DIBAC-suc-PEG4-Glu-vcPAB-PIII-1) clicked onto azido-PEG3-amine on glutamines; DAR 4) VH: QVQLQESGPGLVKPSETLSLTCTVTGGSISRNYWSWIRQPPGKGLEWIGYIYYSGSIDYNPSLKSRVTISVDTSKNQFSLKLSSMTAADTAVYYCARDRWNWKYGMDVWGQGTTVIVSS VL: EIVLTQSPGTLSLSPGERATLSCRASQTVRNNYLAWYHQKPGQAPRLLIYGASSRATGIPDRFSGSGSGTDFTLTISRLEPEDFTVYYCHQYGNSPWTFGQGTKMEIKR | 0.184 nM | 96.4 | 52.7 nM | 6.0 | – | – | – | –
5 | H1H21234N-N297Q-L14-PII-1 (antibody, V domains shown, heavy-chain constant region (not part of this entry): N297Q (EU); linker-payload L14-PII-1 (DIBAC-GGFG-NHCH2-Bud) conjugated as in Example 5; four DAR ADC) VH: QVQLQESGPGLVKPSETLSLTCTVTGGSISRNYWSWIRQPPGKGLEWIGYIYYSGSIDYNPSLKSRVTISVDTSKNQFSLKLSSMTAADTAVYYCARDRWNWKYGMDVWGQGTTVIVSS VL: EIVLTQSPGTLSLSPGERATLSCRASQTVRNNYLAWYHQKPGQAPRLLIYGASSRATGIPDRFSGSGSGTDFTLTISRLEPEDFTVYYCHQYGNSPWTFGQGTKMEIKR | – | – | – | – | 0.636 nM | 120 | > 100 nM | 16.8
6 | H1H21234N-N297Q-L5-PIII-1 (antibody, V domains shown, heavy-chain constant region (not part of this entry): N297Q (EU); linker-payload L5-PIII-1 (DIBAC-suc-SGGG-PIII-1) clicked onto azido-PEG3-amine on glutamines; DAR 4) VH: QVQLQESGPGLVKPSETLSLTCTVTGGSISRNYWSWIRQPPGKGLEWIGYIYYSGSIDYNPSLKSRVTISVDTSKNQFSLKLSSMTAADTAVYYCARDRWNWKYGMDVWGQGTTVIVSS VL: EIVLTQSPGTLSLSPGERATLSCRASQTVRNNYLAWYHQKPGQAPRLLIYGASSRATGIPDRFSGSGSGTDFTLTISRLEPEDFTVYYCHQYGNSPWTFGQGTKMEIKR | 0.138 nM | 125 | 41.7 nM | 13.2 | – | – | – | –
7 | H1H21234N-N297Q-L13-PII-1 (antibody, V domains shown, heavy-chain constant region (not part of this entry): N297Q (EU); linker-payload L13-PII-1 (COT-GGGG-NHCH2-Bud) conjugated as in Example 5; four DAR ADC) VH: QVQLQESGPGLVKPSETLSLTCTVTGGSISRNYWSWIRQPPGKGLEWIGYIYYSGSIDYNPSLKSRVTISVDTSKNQFSLKLSSMTAADTAVYYCARDRWNWKYGMDVWGQGTTVIVSS VL: EIVLTQSPGTLSLSPGERATLSCRASQTVRNNYLAWYHQKPGQAPRLLIYGASSRATGIPDRFSGSGSGTDFTLTISRLEPEDFTVYYCHQYGNSPWTFGQGTKMEIKR | – | – | – | – | 2.33 nM | 226 | > 100 nM | 3.1
